The record followed here is publication PMC3919806.

This test concerns the target Lrp4-myc (mouse full length Lrp4) (mouse) (UniProt Q8VI56).
UniProt Q8VI56, sequence (Q8VI56 21-1905): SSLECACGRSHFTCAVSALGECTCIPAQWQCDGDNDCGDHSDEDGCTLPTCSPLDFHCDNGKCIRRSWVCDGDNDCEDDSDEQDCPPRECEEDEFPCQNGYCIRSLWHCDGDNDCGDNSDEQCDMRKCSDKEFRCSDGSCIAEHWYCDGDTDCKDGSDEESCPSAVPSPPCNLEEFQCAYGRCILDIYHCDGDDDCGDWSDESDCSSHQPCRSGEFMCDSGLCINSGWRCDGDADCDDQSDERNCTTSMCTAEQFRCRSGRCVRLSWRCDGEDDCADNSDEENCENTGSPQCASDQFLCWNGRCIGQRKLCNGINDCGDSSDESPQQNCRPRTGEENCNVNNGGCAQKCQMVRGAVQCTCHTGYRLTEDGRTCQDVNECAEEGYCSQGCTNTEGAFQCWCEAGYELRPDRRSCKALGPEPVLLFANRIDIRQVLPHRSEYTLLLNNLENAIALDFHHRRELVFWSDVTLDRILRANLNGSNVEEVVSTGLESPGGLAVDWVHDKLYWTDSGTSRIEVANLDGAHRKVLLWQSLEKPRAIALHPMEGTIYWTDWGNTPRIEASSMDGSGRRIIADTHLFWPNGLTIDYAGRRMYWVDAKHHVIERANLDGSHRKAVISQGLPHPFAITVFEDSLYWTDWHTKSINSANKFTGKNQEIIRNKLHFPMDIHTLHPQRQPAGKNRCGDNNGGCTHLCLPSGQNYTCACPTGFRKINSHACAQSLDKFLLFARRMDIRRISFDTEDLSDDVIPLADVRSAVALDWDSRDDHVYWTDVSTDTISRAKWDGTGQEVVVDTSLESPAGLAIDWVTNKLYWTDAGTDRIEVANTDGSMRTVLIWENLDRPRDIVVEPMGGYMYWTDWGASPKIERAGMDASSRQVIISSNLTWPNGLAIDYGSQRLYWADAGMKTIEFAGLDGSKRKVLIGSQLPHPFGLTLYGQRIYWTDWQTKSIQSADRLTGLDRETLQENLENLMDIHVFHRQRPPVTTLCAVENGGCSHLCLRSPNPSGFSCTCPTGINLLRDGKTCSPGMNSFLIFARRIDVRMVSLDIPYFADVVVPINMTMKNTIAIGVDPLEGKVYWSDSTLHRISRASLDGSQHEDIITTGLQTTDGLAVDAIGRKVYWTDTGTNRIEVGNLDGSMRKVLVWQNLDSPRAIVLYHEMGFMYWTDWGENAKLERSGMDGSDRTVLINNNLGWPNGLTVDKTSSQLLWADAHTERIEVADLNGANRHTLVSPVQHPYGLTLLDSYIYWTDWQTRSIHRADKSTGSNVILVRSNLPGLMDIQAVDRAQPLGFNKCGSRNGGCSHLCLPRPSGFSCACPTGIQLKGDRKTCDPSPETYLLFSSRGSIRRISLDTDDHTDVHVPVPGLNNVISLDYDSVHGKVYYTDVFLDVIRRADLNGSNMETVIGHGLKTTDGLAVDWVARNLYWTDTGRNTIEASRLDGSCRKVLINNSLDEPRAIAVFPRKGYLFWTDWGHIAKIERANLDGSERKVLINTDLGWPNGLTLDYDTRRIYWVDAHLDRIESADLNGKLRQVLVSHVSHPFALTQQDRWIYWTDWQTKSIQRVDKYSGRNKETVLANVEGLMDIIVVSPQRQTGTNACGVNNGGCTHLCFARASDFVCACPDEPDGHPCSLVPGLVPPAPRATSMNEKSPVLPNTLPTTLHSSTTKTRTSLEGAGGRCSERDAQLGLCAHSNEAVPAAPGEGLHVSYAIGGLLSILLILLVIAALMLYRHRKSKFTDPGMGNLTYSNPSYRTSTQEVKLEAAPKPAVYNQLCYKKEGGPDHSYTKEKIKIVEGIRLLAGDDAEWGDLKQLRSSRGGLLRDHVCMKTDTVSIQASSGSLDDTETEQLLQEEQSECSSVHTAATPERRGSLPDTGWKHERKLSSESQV

In the case of “NT-1654, C-terminal 44 kDa fragment of murine agrin (from UniProt A2ASQ1 1519-1950) (domain or fragment)”, the AChR clustering on differentiated C2C12 myotubes, 16 h (area of AChR clusters normalized to myotube area), EC50 was 0.44 nM.
